Measurements published in article doi:10.1101/2025.08.26.672026 (bioRxiv, 2025).

Target: the molecule itself
Test: negative stain EM

B1: RPS2^ΔN26 (domain or fragment, Arabidopsis thaliana, UniProt Q42484 27-909, looked up)
chain: HKTDLRQAITDLETAIGDLKAIRDDLTLRIQQDGLEGRSCSNRAREWLSAVQVTETKTALLLVRFRRREQRTRMRRRYLSCFGCADYKLCKKVSAILKSIGELRERSEAIKTDGGSIQVTCREIPIKSVVGNTTMMEQVLEFLSEEEERGIIGVYGPGGVGKTTLMQSINNELITKGHQYDVLIWVQMSREFGECTIQQAVGARLGLSWDEKETGENRALKIYRALRQKRFLLLLDDVWEEIDLEKTGVPRPDRENKCKVMFTTRSIALCNNMGAEYKLRVEFLEKKHAWELFCSKVWRKDLLESSSIRRLAEIIVSKCGGLPLALITLGGAMAHRETEEEWIHASEVLTRFPAEMKGMNYVFALLKFSYDNLESDLLRSCFLYCALFPEEHSIEIEQLVEYWVGEGFLTSSHGVNTIYKGYFLIGDLKAACLLETGDEKTQVKMHNVVRSFALWMASEQGTYKELILVEPSMGHTEAPKAENWRQALVISLLDNRIQTLPEKLICPKLTTLMLQQNSSLKKIPTGFFMHMPVLRVLDLSFTSITEIPLSIKYLVELYHLSMSGTKISVLPQELGNLRKLKHLDLQRTQFLQTIPRDAICWLSKLEVLNLYYSYAGWELQSFGEDEAEELGFADLEYLENLTTLGITVLSLETLKTLFEFGALHKHIQHLHVEECNELLYFNLPSLTNHGRNLRRLSIKSCHDLEYLVTPADFENDWLPSLEVLTLHSLHNLTRVWGNSVSQDCLRNIRCINISHCNKLKNVSWVQKLPKLEVIELFDCREIEELISEHESPSVEDPTLFPSLKTLRTRDLPELNSILPSRFSFQKVETLVITNCPRVKKLPFQERRTQMNLPTVYCEEKWWKALEKDQPNEELCYLPRFVPN
- stoichiometry N: 8
